Results taken from article PMC12849132.

target: T1, PhaR (Ralstonia eutropha H16 (Cupriavidus necator)) (UniProt Q0KBP6); test: EMSA; conditions: EMSA: 0-250 ng PhaR, ~75 ng FAM-DNA, 5 uL master mix (1.75 uL 10x TBE, 0.25 uL 10 mg/mL herring sperm DNA, 3 uL DNA), 30 min at 37 C, 7.5% native PAGE
T1 sequence: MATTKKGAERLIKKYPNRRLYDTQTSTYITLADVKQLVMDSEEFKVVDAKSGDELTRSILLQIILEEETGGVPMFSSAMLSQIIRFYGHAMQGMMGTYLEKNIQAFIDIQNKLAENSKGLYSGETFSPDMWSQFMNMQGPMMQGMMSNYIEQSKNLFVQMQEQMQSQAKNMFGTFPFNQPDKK

| Sequence | binding |
| --- | --- |
| ATCGAATTCACGATGCACTTTTATTGTCCTGTTTTAAAGACTTTTTGGGTATATACCTAGGGATCAAATTAGAGGAAACCCTCTAGGATTCGCACTCGGATGCTGCGCTGCAGGATTGGTGGCGCTGTCAATCCGGAAGCCAAACCGAAGCGGATTCACGTTGCAATCTGTTGCGCGAATCCGTTCGATCAATCCACAG (double strand) [F2 (BS2, phaP3)] | binds more weakly |
| ATCGAATTCTGTATTCAGAGATCCGTTCCAAGCGTCTGGGGTGAAGTGCGCCCTACACATGTCATGCACTGCAACATTTCTGCGTAAGCACATGTAAATTTAGAGACGTACGATGCACTTTTATTGTCCTGTTTTAAAGACTTTTTGGGTATATACCTAGGGATCAAATTAGAGGAAACCCTCTAGGATTCGCACTCGGATGCT (double strand) [F1 (BS1, phaP3)] | binds |
| ATCGAATTCTGTATTCAGAGATCCGTTCCAAGCGTCTGGGGTGAAGTGCGCCCTACACATGTCATGCACTGCAACATTTCTGCGTAAGCACATGTAAATTTAGAGACGTACGATGCACTTTTATTGTCCTGTTTTAAAGACTTTTTGGGTATATACCTAGGGATCAAATTAGAGGAAACCCTCTAGGATTCGCACTCGGATGCTGCGCTGCAGGATTGGTGGCGCTGTCAATCCGGAAGCCAAACCGAAGCGGATTCACGTTGCAATCTGTTGCGCGAATCCGTTCGATCAATCCACAG (double strand) [F4 (BS1+BS2, phaP3)] | binds |
| GGCGCTGTCAATCCGGAAGCCAAACCGAAGCGGATTCACGTTGCAATCTGTTGCGCGAATCCGTTCGATCAATCCACAGGAGATTTTGCATGTCCCCTTTTATGCCCGAGCAATTTGCTGCAGTGCAAAAGTCCAGTCTGAACCAACTGTTCGCGCTGACGAACATGGCTTTTGACGGCGGA (double strand) [F3 (BS3, phaP3)] | binds more weakly |
